Legend:
[1] = target: T1, synthetic peptide P(27→40) (human); experiment: ELISA on synthetic CεmX peptides
T1 construct: Residues are counted on the CεmX domain; also called Peptide M1′-8
T1 peptide: PRAAGGSVPHPRCH

[2] = target: T2, synthetic peptide P(29→46), AAGGSVPHPRCHCGAGRA (human); experiment: ELISA on synthetic CεmX peptides
T2 construct: Residues are counted on the CεmX domain
T2 peptide: AAGGSVPHPRCHCGAGRA

[3] = target: T3, synthetic peptide P(33→46), SVPHPRCHCGAGRA (human); experiment: ELISA on synthetic CεmX peptides
T3 construct: Residues are counted on the CεmX domain
T3 peptide: SVPHPRCHCGAGRA

[4] = target: T4, synthetic 22 amino acid peptide P(25→46), GLPRAAGGSVPHPRCHCGAGRA (human); experiment: ELISA, plate coated with P(25→46)
T4 construct: Residues 25-46 are counted on the CεmX domain; The peptide was coated on the ELISA plates without a carrier; the OVA conjugate was used only for immunization; also called target antigen peptide
T4 peptide: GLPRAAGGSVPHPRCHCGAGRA
Procedure: To screen hybridomas for antibody secretion and to map the epitopes of secreted antibodies, the wells of microtiter plates were coated by incubating them overnight at 4° C. with 10 μg/mL of P(25→46) in 0.1 M carbonate buffer, pH 9.6. The wells were first blocked for 1 hour with 1% bovine serum albumin (BSA) in phosphate buffered saline (PBS), pH7.3, and then incubated for 1 hour at 37° C. at various dilutions with antisera or control antibodies. The wells were then washed and the ligand-bound antibodies detected by horse radish peroxidase (HRP)-conjugated goat anti-mouse IgG, Fcγ fragment specific (Jackson ImmunoResearch), or anti-human IgG, Fcγ fragment specific (Jackson ImmunoResearch) at a dilution of 1:10,000. To detect the ligand-bound antibodies, the wells were incubated for 1 hour at 37° C., followed by incubation with TMB (3,3′,5,5′-tetramethylbenzidine) substrate (Clinical Scientific Products).
One of the monoclonal antibodies specific for an epitope within the P(25→46), herein designated mAb 23B11, was subjected to epitope mapping studies. Several peptides representing parts of the consecutive P(25→46) were synthesized, including P(29→46) (SEQ ID NO:1); P(31→46) (SEQ ID NO:3), P(33→46) (SEQ ID NO:4), P(27→40) (SEQ ID NO:5), and […] (SEQ ID NO:6), as shown in FIG. 1A. […] The reactivity of mAb 23B11 with the synthesized peptides were analyzed by ELISA. […]

Measured: binding result

B1: monoclonal antibody mAb 23B11 (antibody, V domains shown)
VH: EVQLQQSGAELMKPGASVKISCKASGYTFSSYWIEWVYQRPGHGLEWIGEILPGSGSSNYNEKFEGKATFTADTSSNTAYMHLSSLTSEDSAVYYCARWDYYGGRGFDYWGQGTTLTAAA
VL: DIVMTQAAPSVPVTPGESVSISCRSSKSLLHSNGNIYLHWFLQRPGQSPQLLIYRMSNVASGVPDRFSGSGSGTVFTLRISRVEAEDVGVYYCMQNLEYPLTFGAGTKLELK
notes: Murine hybridoma antibody from BALB/c mice, detected with anti-mouse IgG
binds: [1] | [2] | [3] | [4]

— US20160032017A1 (ACADEMIA SINICA, published 2016)
